Read-outs that look alike come from different tables or passages of the source. No end group written: not given here.
What was measured:
[1] = molecular target: CGRP receptor of pig coronary artery (pig); assay: displacement of 125I-[His10]-h-αCGRP from pig coronary artery membranes
[2] = molecular target: CGRP receptor of pig coronary artery (pig); assay: cell-based or functional assay
[3] = molecular target: CGRP receptor of pig coronary artery (pig); assay: displacement of 125I-[His10]-h-αCGRP from pig coronary artery membranes; remark: listed apart in the source

N-α-benzoyl-h-α-CGRP (8-37) (peptide) showed an IC50 [1] of 270 pM.

N-α-benzyl-h-α-CGRP (8-37) (peptide) gave an IC50 [1] of 1580 pM.

dibenzyl-h-α-CGRP(8-37) (peptide) was tested, and the IC50 [1] was 220 pM.

Molecule h-α-CGRP (8-37) (peptide) has a KB from inhibition of h-α-CGRP-induced relaxation of pig coronary artery rings (Schild analysis) [2] of 970 nM.

In the case of VTHRLAGLLSRSGGMVKSNFVPTNVGSKAF (peptide, UniProt P10092 89-118, looked up, Calcitonin gene-related peptide 2 N-alpha-benzyl) [N-α-benzyl-h-β-CGRP (8-37)], the IC50 [3] is reported as 3620 pM.

With VTHRLAGLLSRSGGMVKSNFVPTNVGSKAF (peptide, UniProt P10092 89-118, looked up, Calcitonin gene-related peptide 2 N-alpha-benzoyl) [N-α-benzoyl-h-β-CGRP (8-37)] the IC50 [3] was 630 pM.

Work on VTHRLAGLLSRSGGMVKSNFVPTNVGSKAF (peptide, UniProt P10092 89-118, looked up, Calcitonin gene-related peptide 2 N,N-dibenzyl) [dibenzyl-h-β-CGRP(8-37)] yielded an IC50 [3] of 730 pM.

In the case of VTHRLAGLLSRSGGMVKSNFVPTNVGSKAF (ends and bridges not checked) [h-β-CGRP (8-37)], the IC50 [3] is reported as 20600 pM.

From patent publication US20020068814A1
